Laboratory results taken from patent publication US5876948 (The Children's Medical Center Corporation, dated 1999).
Bridge positions count the residues as written; N and C are the ends. Square brackets hold non-standard residues; d marks the D form. Ends that are not written are not given here. NMeF = CN[C@@H](Cc1ccccc1)C(=O)O; pGlu = O=C1CC[C@@H](C(=O)O)N1; Sar = CNCC(=O)O

Molecular target: β-amyloid peptide β1-40 (polypeptide corresponding to the first 40 amino acids of β-amyloid)
Experiment: cell-based or functional assay

Binder | Therapeutic Efficacy (%)
RPCPQCFYPLM (disulfide 3-6; ends not checked) [[Cys^3,6, Tyr^8, Pro^9]-Sub P] | 53
RPKPQQFFGLM-NH2 [Substance P] | 100
FFGLM [Sub P (7-11)] | 41
RPKPQQFFGLM-OH [Sub P, Free Acid] | 53
[pGlu]QF[NMeF][Sar]LM (ends and bridges not checked) [[pGlu^5, Me-Phe^8, Sar^9]-Sub P (5-11)] | 41
RPKPQQFFGLM-OMe [Sub P, Methyl Ester] | 71
QFFGLM [Sub P (6-11)] | 65
RPKPQQF [Substance P (1-7)] | 82
RPKPQQFFGLX (nor-leucine at position 11) [[Nle^11]-Sub P] | 77
